From article PMC3208551

Key:
[1] = biological target: ActRII-ECD (mouse); assay: SPR; Biacore 2000; receptor ECDs immobilised on a CM5 chip by primary amine coupling, ligands flowed over; at least five concentrations plus zero; global 1:1 Langmuir binding with mass transfer, KD calculated as koff/kon
[2] = biological target: AB212 (BBBBBA) (human)

Chain of ActRII-ECD (mouse) (P27038 whole entry, the tested form may be a part): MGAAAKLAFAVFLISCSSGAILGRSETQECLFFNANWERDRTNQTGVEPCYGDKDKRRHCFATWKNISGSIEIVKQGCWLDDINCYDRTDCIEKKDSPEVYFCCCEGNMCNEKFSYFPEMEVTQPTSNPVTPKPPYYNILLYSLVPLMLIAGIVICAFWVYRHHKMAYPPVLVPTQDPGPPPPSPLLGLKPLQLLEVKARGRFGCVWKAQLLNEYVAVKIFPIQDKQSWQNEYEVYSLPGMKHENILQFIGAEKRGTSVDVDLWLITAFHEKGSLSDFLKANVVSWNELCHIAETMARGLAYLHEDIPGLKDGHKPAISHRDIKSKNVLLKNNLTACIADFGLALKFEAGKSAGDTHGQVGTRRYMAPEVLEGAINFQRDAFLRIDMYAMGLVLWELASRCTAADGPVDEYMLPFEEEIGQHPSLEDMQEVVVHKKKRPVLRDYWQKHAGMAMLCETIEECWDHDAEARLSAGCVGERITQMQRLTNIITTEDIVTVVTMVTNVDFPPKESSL

Molecule | Kd [1] [nM] | koff [1] [s⁻¹] | kon [1] [M⁻¹ s⁻¹] | Smad1 luciferase reporter in C2C12 cells, 30 ng/ml ligand with 30, 100 and 300 ng/ml Noggin (% of signaling levels) [2]
BMP-2 (BBBBBB) (from UniProt P12643 283-396) (ligand) | 36.8 | 0.0405 | 1.1e+06 | 
Activin-βA (AAAAAA) (ligand) GLECDGKVNICCKKQFFVSFKDIGWNDWIIAPSGYHANYCEGECPSHIAGTSGSSLSFHSTVINHYRMRGHSPFANLKSCCVPTKLRPMSMLYYDDGQNIIKKDIQNMIVEECGCS | 0.203 | 0.000716 | 3.52e+06 | 
Noggin (natural protein) QHYLHIRPAPSDNLPLVDLIEHPDPIFDPKEKDLNETLLRSLLGGHYDPGFMATSPPEDRPGGGGGAAGGAEDLAELDQLLRQRPSGAMPSEIKGLEFSEGLAQGKKQRLSKKLRRKLQMWLWSQTFCPVLYAWNDLGSRFWPRYVKVGSCFSKRSCSVPEGMVCKPSKSVHLTVLRWRCQRRGGQRCGWIPIQYPIISECKCSC |  |  |  | 75
